Results taken from patent US20190233512A1 (SUTRO BIOPHARMA, published 2019).

Tests used:
[1] = molecular target: T1, human FOLR1-HIS (human, UniProt P15328 25-234); test: SPR (Biacore), antibody captured on anti-Fc, FOLR1-HIS as analyte, 25 C
T1 construct: Soluble analyte of the Biacore assay; also called human folate receptor alpha; hFOLR1; not shown: HIS tag
Description: Anti-Fc polyclonal antibodies were immobilized onto a CM5 chip (GE Life Sciences) using amine coupling chemistry (from Amine Coupling Kit, GE Life Sciences). The immobilization steps were carried out at a flow rate of 25 μL/min in 1×HBS-EP+buffer (GE Life Sciences; 10× Stock diluted before use). The sensor surfaces were activated for 7 min with a mixture of N-hydroxysuccinimide (NHS, 0.05 M) and 1-ethyl-3-(3-dimethylaminopropyl)-carbodiimide (EDC, 0.2 M). The anti-Fc polyclonal antibodies were injected over all 4 flow cells at a concentration of 25 μg/mL in 10 mM sodium acetate, pH 4.5, for 7 min. Ethanolamine (1 M, pH 8.5) was injected for 7 min to block any remaining activated groups.
Off-rate and kinetic binding experiments were performed at 25° C. using 1×HBS-EP+buffer. Test and control antibodies were injected over the anti-Fc surface at concentrations of 5-10 μg/mL for 12 seconds at a flow rate of 10 μL/min on flow cells 2, 3 and 4, followed by a buffer wash for 30 seconds at the same flow rate.
The data were fit with the Biacore T200 Evaluation software, using a 1:1 Langmuir binding model. KD (affinity, nM) was determined as a ratio of the kinetic rate constants calculated from the fits of the association and dissociation phases.

[2] = molecular target: FOLR1 on FOLR1-positive Igrov1 cells (UniProt P15328 25-234, limits assumed); test: cell-based or functional assay
FOLR1 on FOLR1-positive Igrov1 cells, sequence (P15328 25-234 limits assumed): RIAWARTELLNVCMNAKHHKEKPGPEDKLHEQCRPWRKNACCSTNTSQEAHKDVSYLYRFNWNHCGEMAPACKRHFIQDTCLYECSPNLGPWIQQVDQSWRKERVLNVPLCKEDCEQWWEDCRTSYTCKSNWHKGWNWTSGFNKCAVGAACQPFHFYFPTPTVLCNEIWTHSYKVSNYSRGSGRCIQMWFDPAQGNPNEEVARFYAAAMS

T1 sequence (P15328 25-234 limits assumed): as above

koff [1]	kon [1]	Binder	Igrov 2° Antibody Cell Killing, Nb-SC239: EC50 [2]	Igrov 2° Antibody Cell Killing, Nb-SC239: span (%) [2]
0.00139 s⁻¹	659000 M⁻¹ s⁻¹	SRP1848-H01 (antibody, V domains shown, trastuzumab light chain; captured through Fc in SPR (IgG format); HIS- and FLAG-tagged; also called Antibody 55) VH: EVQLVESGGGLVQPGGSLRLSCAASGFNIRTQSIHWVRQAPGKGLEWIGDIFPIDGITDYADSVKGRFTISADTSKNTAYLQMNSLRAEDTAVYYCARGSWSWPSGMDYYLDYWGQGTLVTVSS VL: not shown		
		SRP2060-B01 (antibody, V domains shown) VH: EVQLLESGGGLVQPGGSLRLSCALSGFSLSTFGMGVGWVRQATGKGLEWVSHIWWDDDKYYHPALKGRFTISKDNSKNTVHLQMNSLRAEDTAVYYCGRNHFPHYYGSSHWYFNVWGQGTTVTVSS VL: DIQMTQSPSTLSASVGDRVTITCKASQDINSYLSWYQQKPGKAPKLLIYRANRLVDGVPSRFSGSGSGTEFTLTISSLQPDDFATYYCLQYDEFPYTFGGGTKVEIK	0.045 nM	76%
		SRP2060-A06 (antibody, V domains shown) VH: EVQLLESGGGLVQPGGSLRLSCAFSGFSLSTFGMGVGWVRQAPGKGLEWVGHIWWDDDKYYYPALKGRFTISKDNSKNTVYLQMNSLRAEDTAVYYCGRNHFPHYYGSSHWYFDVWGQGTTVTVSS VL: DIQMTQSPSTLSASVGDRVTITCKASQDINSYLSWYQQKPGKAPKLLIYRANRLVDGVPSRFSGSGSGTEFTLTISSLQPDDFATYYCLQYDEFPYTFGGGTKVEIK	0.013 nM	66%
